Assay results taken from patent US8318473B2, “Biofuel production” (Bio Architecture Lab, Inc., priority 2007, dated 2012).

Assays:
[1] = Kinetic testing of oxidation and reduction reactions on various substrates using 2ADH-16; format: biochemical; details: 0.04 mg/mL enzyme, 0.25 mg/mL cofactor, 20 mM Tris HCl pH 6.5(red) or 9.0(ox), 25 C; FIG. 35, 36
Protocol: Similar to above, kinetic testing for both oxidation and reduction reactions was performed on various substrates using 2ADH-16. The conditions for these studies were as follows: 0.04 mg/mL enzyme, 0.25 mg/mL cofactor, 20 mM Tris HCl Buffer pH 6.5(red) or 9.0(ox), T=25 C, 100 uL total volume was used.

[2] = background statement, no test described; cited from earlier work

B1: 2ADH-16: secondary alcohol dehydrogenase isolated from Klebsiella pneumoniae subsp. pneumoniae MGH 78578, SEQ ID NO: 138 (protein)
chain: MTAFHNKSVLVLGGSRGIGAAIVRRFVADGASVVFSYSGSPEAAERLAAETGSTAVQADSADRDAVISLVRDSGPLDVLVVNAGIALFGDALEQDSDAIDRLFHINIHAPYHASVEAARRMPEGGRIIVIGSVNGDRMPLPGMAAYALSKSALQGLARGLARDFGPRGITVNVVQPGPIDTDANPENGPMKELMHSFMAIKRHGRPEEVAGMVAWLAGPEASFVTGAMHTIDGAFGA
modifications: Klebsiella pneumoniae subsp. pneumoniae MGH78578
oxidation and reduction of various substrates [1]: capable of catalyzing both the oxidation and reduction of a wide variety of substrates

B2: BAL: benzaldehyde lyase (BAL) from Pseudomoas fluorescens, ThDP-dependent C—C ligase, SEQ ID NOS: 143-144 (protein, listed as Pseudomonas fluorescens)
chain: MAMITGGELVVRTLIKAGVEHLFGLHGAHIDTIFQACLDHDVPIIDTRHEAAAGHAAEGYARAGAKLGVAGHGGRGIYQCGHAHCQRLAGSQGRCIPHPGSGALRDDETNTLQAGIDQVAMAAPITKWAHRVMATEHIPRLVMQAIRAALSAPRGPVLLDLPWDILMNQIDEDSVIIPDLVLSAHGARPDPADLDQALALLRKAERPVIVLGSEASRTARKTALSAFVAATGVPVFADYEGLSMLSGLPDAMRGGLVQNLYSFAKADAAPDLVLMLGARFGLNTGHGSGQLIPHSAQVIQVDPDACELGRLQGIALGIVADVGGTIEALAQATAQDAAWPDRGDWCAKVTDLAQERYASIAAKSSSEHALHPFHASQVIAKHVDAGVTVVADGALTYLWLSEVMSRVKPGGFLCHGYLGSMGVGFGTALGAQVADLEAGRRTILVTGDGSVGYSIGEFDTLVRKQLPLIVIIMNNQSWGATLHFQQLAVGPNRVTGTRLENGSYHGVAAAFGADGYHVDSVESFSAALAQALAHNRPACINVAVALDPIPPEELILIGMDPFA
rate of benzoin formation from two benzaldehyde molecules [2]: 320 μmol (benzoin) mg (protein)^−1 min^−1
